We go through 2 molecules from article PMC4305340.

Where two headings read alike, the source gives them in different places.

Holding throughout (experiment): fluorescence polarization
For orientation: Polarisation of emitted light reports the rotation of a fluorescent probe.

Data set [1] deals with T1, PrfA wild type (Listeria monocytogenes, UniProt P22262 1-237).
A further data set has as its target PrfA(C/A)4 (Listeria monocytogenes, UniProt P22262 1-237, C38A;C144A;C205A;C229A).
Data set [2] deals with T1, PrfA wild type. This is another data set of the same source.

B1: Phly PrfA box (dsDNA)
DNA 1: TGAGGCATTAACATTTGTTAACGACGAT
DNA 2: ATCGTCGTTAACAAATGTTAATGCCTCA
For B1, the figures for the dissociation constant (Kd) with PrfA wild type [1] and with PrfA(C/A)4 were 34.2 nM and 32.8 nM, respectively.

B2: PactA PrfA box (dsDNA)
DNA 1: AACTGATTAACAAATGTTAGAGAAAACT
DNA 2: AGTTTTCTCTAACATTTGTTAATCAGTT
In the case of B2, the Kd – broadly, the constant that tells how readily two partners part at equilibrium – worked out at 96.4 nM with PrfA wild type [2] and 125 nM in the data set with PrfA(C/A)4.
